Reference: the PETadex activity labels (doi:10.1042/bj20021862)

substrate: Acetylcholine; conditions: pH 7; 22 °C

Row | Protein | Km | kcat | kcat/Km
1 | unnamed (protein) MRPPWYPLHTPSLAFPLLFLLLSLLGGGARAEGREDPQLLVRVRGGQLRGIRLKAPGGPVSAFLGIPFAEPPVGSRRFMPPEPKRPWSGVLDATTFQNVCYQYVDTLYPGFEGTEMWNPNRELSEDCLYLNVWTPYPRPASPTPVLIWIYGGGFYSGAASLDVYDGRFLAQVEGAVLVSMNYRVGTFGFLALPGSREAPGNVGLLDQRLALQWVQENIAAFGGDPMSVTLFGESAGAASVGMHILSLPSRSLFHRAVLQSGTPNGPWATVSAGEARRRATLLARLVGCPPGGAGGNDTELIACLRTRPAQDLVDHEWHVLPQESILRISFVPVVDGDFLSDTPEALINTGDFQDLQVLVGVVKDEGSAFLVYGVPGFSKDNESLISRAQFLAGVRIGVPQASDLAAEAVVLHYTDWLHPEDPTHLRDAMSAVVGDHNVVCPVAQLAGRLAAQGARVYAYIFEHRASTLTWPLWMGVPHGYEIEFIFGLPLDPSLNYTTEERIFAQRLMKYWTNFARTGDPNDPRDSKSPQWPPYTTAAQQYVSLNLKPLEVRRGLRAQTCAFWNRFLPKLLSATDTLDEAERQWKAEFHRWSSYMVHWKNQFDHYSKQERCSDL | 69 µM | 250 s⁻¹ | 3.62e+06 M⁻¹ s⁻¹
2 | unnamed (protein) MRPPWYPLHTPSLAFPLLFLLLSLLGGGARAEGREDPQLLVRVRGGQLRGIRLKAPGGPVSAFLGIPFAEPPVGSRRFMPPEPKRPWSGVLDATTFQNVCYQYVDTLYPGFEGTEMWNPNRELSEDCLYLNVWTPYPRPASPTPVLIWIYGGGFYSGAASLDVYDGRFLAQVEGAVLVSMNYRVGTFGFLALPGSREAPGNVGLLDQRLALQWVQENIAAFGGDPMSVTLFGESAGAASVGMHILSLPSRSLFHRAVLQSGTPNGPWATVSAGEARRRATLLARLVGCPPGGAGGNDTELIACLRTRPAQDLVDHEWHVLPQESIFRFSFVPVVDGDFLSDTPEALINTGDFQDLQVLVGVVKDEGSAALVYGVPGFSKDNESLISRAQFLAGVRIGVPQASDLAAEAVVLHYTDWLHPEDPTHLRDAMSAVVGDHNVVCPVAQLAGRLAAQGARVYAYIFEHRASTLTWPLWMGVPHGYEIEFIFGLPLDPSLNYTTEERIFAQRLMKYWTNFARTGDPNDPRDSKSPQWPPYTTAAQQYVSLNLKPLEVRRGLRAQTCAFWNRFLPKLLSATDTLDEAERQWKAEFHRWSSYMVHWKNQFDHYSKQERCSDL | 150 µM | 650 s⁻¹ | 4.33e+06 M⁻¹ s⁻¹
3 | unnamed (protein) MRPPWYPLHTPSLAFPLLFLLLSLLGGGARAEGREDPQLLVRVRGGQLRGIRLKAPGGPVSAFLGIPFAEPPVGSRRFMPPEPKRPWSGVLDATTFQNVCYQYVDTLYPGFEGTEMWNPNRELSEDCLYLNVWTPYPRPASPTPVLIWIYGGGFYSGAASLDVYDGRFLAQVEGAVLVSMNYRVGTFGFLALPGSREAPGNVGLLDQRLALQWVQENIAAFGGDPMSVTLFGESAGAASVGMHILSLPSRSLFHRAVLQSGTPNGPWATVSAGEARRRATLLARLVGCPPGGAGGNDTELIACLRTRPAQDLVDHEWHVLPQESILRFSFVPVVDGDFLSDTPEALINTGDFQDLQVLVGVVKDEGSAALVYGVPGFSKDNESLISRAQFLAGVRIGVPQASDLAAEAVVLHYTDWLHPEDPTHLRDAMSAVVGDHNVVCPVAQLAGRLAAQGARVYAYIFEHRASTLTWPLWMGVPHGYEIEFIFGLPLDPSLNYTTEERIFAQRLMKYWTNFARTGDPNDPRDSKSPQWPPYTTAAQQYVSLNLKPLEVRRGLRAQTCAFWNRFLPKLLSATDTLDEAERQWKAEFHRWSSYMVHWKNQFDHYSKQERCSDL | 150 µM | 283 s⁻¹ | 1.89e+06 M⁻¹ s⁻¹
4 | unnamed (protein) MRPPWYPLHTPSLAFPLLFLLLSLLGGGARAEGREDPQLLVRVRGGQLRGIRLKAPGGPVSAFLGIPFAEPPVGSRRFMPPEPKRPWSGVLDATTFQNVCYQYVDTLYPGFEGTEMWNPNRELSEDCLYLNVWTPYPRPASPTPVLIWIYGGGFYSGAASLDVYDGRFLAQVEGAVLVSMNYRVGTFGFLALPGSREAPGNVGLLDQRLALQWVQENIAAFGGDPMSVTLFGESAGAASVGMHILSLPSRSLFHRAVLQSGTPNGPWATVSAGEARRRATLLARLVGCPPGGAGGNDTELIACLRTRPAQDLVDHEWHVLPQESIARFSFVPVVDGDFLSDTPEALINTGDFQDLQVLVGVVKDEGSAFLVYGVPGFSKDNESLISRAQFLAGVRIGVPQASDLAAEAVVLHYTDWLHPEDPTHLRDAMSAVVGDHNVVCPVAQLAGRLAAQGARVYAYIFEHRASTLTWPLWMGVPHGYEIEFIFGLPLDPSLNYTTEERIFAQRLMKYWTNFARTGDPNDPRDSKSPQWPPYTTAAQQYVSLNLKPLEVRRGLRAQTCAFWNRFLPKLLSATDTLDEAERQWKAEFHRWSSYMVHWKNQFDHYSKQERCSDL | 76 µM | 333 s⁻¹ | 4.39e+06 M⁻¹ s⁻¹
